Test results as given in patent publication US9434785.

T1: recombinant human OX40L (extracellular domain with FLAG peptide motif and isoleucine zipper motif) (human, UniProt P23510 51-183, biotinylated in the HTRF assays (sites not given))
T1 construct: extracellular domain; It was biotinylated for HTRF and is not described as biotinylated for SPR or the T-cell assay; also called hOX40L; recombinant hOX40L; not shown: FLAG peptide motif and isoleucine zipper motif
T1 sequence (looked up): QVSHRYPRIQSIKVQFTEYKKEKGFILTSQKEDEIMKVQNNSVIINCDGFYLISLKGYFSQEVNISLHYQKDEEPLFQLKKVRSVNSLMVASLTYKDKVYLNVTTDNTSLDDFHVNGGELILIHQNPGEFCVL


What was measured:
[1] = biological target: T1, recombinant human OX40L (extracellular …); assay: SPR (ProteOn XPR36), apparent affinity, antibody captured on anti-mouse IgG, hOX40L at 256 nM, 1:1 model, 25 C
Description: SPR analysis was carried out using the ProteOn™ XPR36 Array System (BioRad). Anti-mouse IgG (GE Healthcare BR-1008-38) was immobilised on a GLM biosensor surface using amine coupling, the surface was then blocked using 1 M ethanolamine. Test antibodies were captured on this surface and recombinant hOX40L (human and rhesus) were used at a single concentration of 256 nM, binding sensorgrams were double referenced using a buffer injection (i.e. 0 nM) to remove baseline drift and injection artefacts. Apparent affinities for the OX40L-antibody interaction were determined using the 1:1 model inherent to the ProteOn XPR36 analysis software. The assay was run using HBS-EP (Teknova) as running buffer and carried out at 25° C.

[2] = biological target: T1, recombinant human OX40L (extracellular …); assay: cell-based or functional assay
[3] = biological target: T1, recombinant human OX40L (extracellular …); assay: HTRF ligand/receptor neutralisation; competitor OX40RFc-AF647 on biotinylated hOX40L; mean of three experiments, SEM +/-0.17
Description: (§1) Profiling of Fully Human Recombinant Anti-OX40L Antibodies in HTRF Ligand/Receptor Neutralisation Assay In order to determine whether recombinantly expressed fully human purified IgG inhibit human OX40L binding to OX40RFc the following method was carried out. Fully human purified IgG or other inhibitor were tested in order to establish the clone potency as measured by IC$50$ values in the assay. Antibodies recombinantly expressed and purified were titrated by diluting in HTRF assay buffer and 5 μL of this titration transferred to a white 384 well low volume non-binding surface polystyrene plate (Greiner). Biotinylated OX40L was diluted in HTRF assay buffer to a working concentration of 2.4 nM and 5 μL added. OX40RFc directly labelled with AF647 was then diluted to working concentration of 10 nM and 5 μL added. […] Plates were covered, protected from light and incubated at room temperature for 3 hrs prior to reading time resolved fluorescence at 620 nm and 665 nm emission wavelengths using an EnVision plate reader (Perkin Elmer). Data were analysed by calculating delta F as described in Equation 4 and percentage of receptor for each sample according to Equation 5 or in some cases Equation 6. IC$50$ values were determined using GraphPad Prism software by curve fitting using a four-parameter logistic equation (Equation 7) (FIG. 1).

[4] = biological target: T1, recombinant human OX40L (extracellular …); assay: HTRF ligand/receptor neutralisation; competitor OX40RFc-AF647 on biotinylated hOX40L; mean of three experiments, SEM +/-0.04
Description: as §1

Kd [1] [nM] | Primary T-cell Assay IC50 nM (recombinant OX40L induced IL2 release from primary isolated T-cells) [2] [nM] | IC50 [3] [nM] | IC50 [4] [nM] | Binder
2.2 |  |  |  | 19H01 (hybridoma) (antibody, V domains shown, Murine/human chimeric antibody purified from hybridoma supernatant (human variable domains, mouse constant regions)) VH: not shown VL: DIQMTQSPSSLSASVGDRVTITCRASQGISNYLAWYQQKPGKIPKLLIYAASTLQSGVPSRFSGSGSGTDFTLTISSLQPEDVATYYCQKYNSAPRTFGQGTKVEIK
 | 0.83 | 1.2 |  | 10A07 (human) (antibody, V domains shown, also called 10A7; mAb 10A7) VH: EVQLVESGGVLVQPGGSLRLSCAASGFTFSSYIMTWVRQAPGKGLEWVSGISGSGGGTYYADSMKGRFTISRDNSKNTLYLQMNSLRVEDTAVYYCAKDRLGPITLVRGGYYYGMDVWGQGTTVTVSS VL: DIQMTQSPSSLSASVGDRVTITCRASQSISDYLNWYQQKPGKAPKFLIYAASSLQSGVPSRFSGSGSGTDFTLTVSSLQPEDFATYYCQQSYSTPRTFGQGTRVEIK

Second part, the binder before the results:

Binder | Kd [1] [nM] | Primary T-cell Assay IC50 nM (recombinant OX40L induced IL2 release from primary isolated T-cells) [2] [nM] | IC50 [3] [nM] | IC50 [4] [nM]
9H04 (hybridoma) (antibody, V domains shown, Murine/human chimeric antibody purified from hybridoma supernatant (human variable domains, mouse constant regions); also called 09H04) VH: QVQLVESGGGLVKPGGSLRLSCAASRFTLSDYYMTWIRQAPGKGLEWVSYISSSGNTIYYADSVKGRFTISRDNAKNSLYLQMNSLRAEDTAVYYCARDLSGSYWDYYYGMDVWGQGTTVTVSS VL: AIQLTQSPSSLSTSVGDRVTIACRASQGINNALAWYQQKPGKAPKLLIYDASSLESGVPSRFSGSGSGTDFTLTISSLQPEDFATYYCQQFNSYPRTFGQGTKVEIK | 5.3 |  |  | 
2D10 (human) (antibody, human IgG4 S228P, kappa, V domains shown, Recombinant fully human IgG4-PE (Ser228Pro, Leu235Glu) with a human kappa light chain; also called 02D10; 2D10 IgG4PE) VH: EVQLVESGGGLVQPGGSLRLSCAASGFTFSNYAMNWVRQAPGKGLEWVSTISGSGGATRYADSVKGRFTISRDNSRNTVYLQMNSLRVEDTAVFYCTKDRLIMATVRGPYYYGMDVWGQGTTVTVSS VL: DIQMTQSPSSLSASVGDRVTITCRASQSISSYLNWYQQKPGKAPNLLIYAASSLQSGVPSRFSGSGSETDFTLTISSLQPEDFATYYCQQSHSVSFTFGPGTKVDIKR |  | 0.81 |  | 0.75
